Reference: patent US20230212319A1, “NOVEL ANTIGEN BINDING DOMAINS AND SYNTHETIC ANTIGEN RECEPTORS INCORPORATING THE SAME” (University of Southern California, priority 2020, published 2023)

B1: SEQ ID NO: 22009: two AABD attached in tandem to one of the two TCR constant chains (protein)
chain: MALPVTALLLPLALLLHAARPLEGKPIPNPLLGLDSTGSGEDLKNVFPPEVAVFEPSKAEIAHTQKATLVCLATGFYPDHVELSWWVNGKEVHSGVCTDPQPLKEQPALNDSRYCLSSRLRVSATFWQNPRNHFRCQVQFYGLSENDEWTQDRAKPVTQIVSAEAWGRADCGITSASYHQGVLSATILYEILLGKATLYAVLVSALVLMAMVKRKDSRGRAKRSGSGATNFSLLKQAGDVEENPGPTSTMDWIWRILFLVGAATGAHSQLQLQESGPGLVKPSETLSLTCTVSGGSVSSSSYYWGWIRQPPGKRLELIGSIYYGGSTYFNPSLKSRVTISVDTSKNQFSLKLSSVTAADTAVYYCAGGDTYGPVGQWPSDYRGQGTLVTVSSGGGGSGGGSFEVQLLESGGGLVQPGGSLRLSCAASGFIFSIYAMSWVRQAPGKGLEWVSGISGSGVNTYYADSVKGRFIISRDNSRNTVYLQMNSLRADDTAVYHCANGKGWDGNTWYEDYRGQGTLVTVSSTREQKLISEEDGSGIQNPDPAVYQLRDSKSSDKSVCLFTDFDSQTNVSQSKDSDVYITDKCVLDMRSMDFKSNSAVAWSNKSDFACANAFNNSIIPEDTFFPSSDVPCDVKLVEKSFETDTNLNFQNLSVIGFRILLLKVAGFNLLMTLRLWSSRAKRSGSGVKQTLNFDLLKLAGDVESNPGPSRGHMTEYKPTVRLATRDDVPRAVRTLAAAFADYPATRHTVDPDRHIERVTELQELFLTRVGLDIGKVWVADDGAAVAVWTTPESVEAGAVFAEIGPRMAELSGSRLAAQQQMEGLLAPHRPKEPAWFLATVGVSPDHQGKGLGSAVVLPGVEAAERAGVPAFLETSAPRNLPFYERLGFTVTADVEVPEGPRTWCMTRKPGA
B2: SEQ ID NO: 22010: two AABD attached in tandem to one of the two TCR constant chains (protein)
chain: MALPVTALLLPLALLLHAARPLEGKPIPNPLLGLDSTGSGEDLKNVFPPEVAVFEPSKAEIAHTQKATLVCLATGFYPDHVELSWWVNGKEVHSGVCTDPQPLKEQPALNDSRYCLSSRLRVSATFWQNPRNHFRCQVQFYGLSENDEWTQDRAKPVTQIVSAEAWGRADCGITSASYHQGVLSATILYEILLGKATLYAVLVSALVLMAMVKRKDSRGRAKRSGSGATNFSLLKQAGDVEENPGPTSTMALPVTALLLPLALLLHAARPQLQLQESGPGLVKPSETLALTCNVSGGSISSSSYYWGWIRQPPGKRLEWIGSIYYSGSTYFNPSLKSRVTISVDTSKNQFSLKLSSVTAADTAVYYCAGGDYYGPVGQWPSDYRGQGTLVTVSSGSGGGGSGGGGSFEVQLLESGGGLVQPGGSLRLSCAASGFIFSSYAMSWVRQAPGKGQEWVSGVSGTGVNTYYADSVKGRFTISRDNSKNTLYLQMNSLRAEDTAVYYCASGKGWDSGSWYEDYRGQGTLVTVSSTREQKLISEEDGSGIQNPDPAVYQLRDSKSSDKSVCLFTDFDSQTNVSQSKDSDVYITDKCVLDMRSMDFKSNSAVAWSNKSDFACANAFNNSIIPEDTFFPSSDVPCDVKLVEKSFETDTNLNFQNLSVIGFRILLLKVAGFNLLMTLRLWSSRAKRSGSGVKQTLNFDLLKLAGDVESNPGPSRGHMTEYKPTVRLATRDDVPRAVRTLAAAFADYPATRHTVDPDRHIERVTELQELFLTRVGLDIGKVWVADDGAAVAVWTTPESVEAGAVFAEIGPRMAELSGSRLAAQQQMEGLLAPHRPKEPAWFLATVGVSPDHQGKGLGSAVVLPGVEAAERAGVPAFLETSAPRNLPFYERLGFTVTADVEVPEGPRTWCMTRKPGA
B3: SEQ ID NO: 22096: FHVH attached to TCRg-6MD via IgCL linker and second FHVH attached to TCRd-6MD via IgG1-CH1 linker (protein)
chain: MALPVTALLLPLALLLHAARPQLQLQESGPGLVKPSETLSLTCTVSGDSISSGDYYWGWIRQPPGKGLEWIGHIYYSGVTYYNPSLKSRVTISVDTSRNQFSLKLSSVTAADTAVYYCTREDSSNWRSRGQGTLVTVSSLEGQPKANPTVTLFPPSSEELQANKATLVCLISDFYPGAVTVAWKADGSPVKAGVETTKPSKQSNNKYAASSYLSLTPEQWKSHRSYSCQVTHEGSTVEKTVAPTECSPIKTDVITMDPKDNCSKDANDTLLLQLTNTSAYYMYLLLLLKSVVYFAIITCCLLRRTAFCCNGEKSRAKRSGSGATNFSLLKQAGDVEENPGPTSMDWIWRILFLVGAATGAHSFEVQLLESGGGLIQPGGSLRLSCAASGFTFSSHAMTWVRQAPGKGLEWVSAISGSGDYTHYADSVKGRFTISRDNSKNTVYLQMNSLRAEDSAVYYCAKDEDGGSLLGHRGQGTLVTVSSTRASTKGPSVFPLAPSSKSTSGGTAALGCLVKDYFPEPVTVSWNSGALTSGVHTFPAVLQSSGLYSLSSVVTVPSSSLGTQTYICNVNHKPSNTKVDKRVEPKSCEVKTDSTDHVKPKETENTKQPSKSCHKPKAIVHTEKVNMMSLTVLGLRMLFAKTVAVNFLLTAKLFFLRAKRSGSGVKQTLNFDLLKLAGDVESNPGPSRGHMTEYKPTVRLATRDDVPRAVRTLAAAFADYPATRHTVDPDRHIERVTELQELFLTRVGLDIGKVWVADDGAAVAVWTTPESVEAGAVFAEIGPRMAELSGSRLAAQQQMEGLLAPHRPKEPAWFLATVGVSPDHQGKGLGSAVVLPGVEAAERAGVPAFLETSAPRNLPFYERLGFTVTADVEVPEGPRTWCMTRKPGA
B4: SEQ ID NO: 22098: FHVH attached to TCRg-6MD via IgCL linker and second FHVH attached to TCRd-6MD via IgG1-CH1 linker (protein)
chain: MALPVTALLLPLALLLHAARPQVQLVESGGGLVQPGGSLRLSCAASGFTFTNHAMSWVRQAPGKGLELVSSISGNGRTTYYADSVKGRFTISRDISKNTLDLQMNSLRAEDTAVYYCAKDGGETLVDSRGQGTLVTVSSLEGQPKANPTVTLFPPSSEELQANKATLVCLISDFYPGAVTVAWKADGSPVKAGVETTKPSKQSNNKYAASSYLSLTPEQWKSHRSYSCQVTHEGSTVEKTVAPTECSPIKTDVITMDPKDNCSKDANDTLLLQLTNTSAYYMYLLLLLKSVVYFAIITCCLLRRTAFCCNGEKSRAKRSGSGATNFSLLKQAGDVEENPGPTSMDWIWRILFLVGAATGAHSFEEVQLLESGGGLVQPGGSLRLSCAASGFTFSSYAMSWVRQAPGKGLEWVSSISGSGDYIYYADSVKGRFTISRDISKNTLYLQMNSLRAEDTAVYYCAKEGTGANSSLADYRGQGTLVTVSSTRASTKGPSVFPLAPSSKSTSGGTAALGCLVKDYFPEPVTVSWNSGALTSGVHTFPAVLQSSGLYSLSSVVTVPSSSLGTQTYICNVNHKPSNTKVDKRVEPKSCEVKTDSTDHVKPKETENTKQPSKSCHKPKAIVHTEKVNMMSLTVLGLRMLFAKTVAVNFLLTAKLFFLRAKRSGSGVKQTLNFDLLKLAGDVESNPGPSRGHMTEYKPTVRLATRDDVPRAVRTLAAAFADYPATRHTVDPDRHIERVTELQELFLTRVGLDIGKVWVADDGAAVAVWTTPESVEAGAVFAEIGPRMAELSGSRLAAQQQMEGLLAPHRPKEPAWFLATVGVSPDHQGKGLGSAVVLPGVEAAERAGVPAFLETSAPRNLPFYERLGFTVTADVEVPEGPRTWCMTRKPGA

tested on: target antigen-expressing cell line; assay: Jurkat NFAT-GFP (JNG) assay: induction of NFAT promoter driven GFP expression; assay type: cell-based; conditions: SAR-expressing JNG cells co-cultured with cell lines expressing their target antigen(s)
Method: Induction ofNFAT promoter driven GFP expression. […] Cellular supernatant is collected and assayed for the induction of cytokines (e.g., IL2).
Cellular supernatant is collected and assayed for the induction of cytokines (e.g., IL2).
JNG (Jurkat cells expressing EGFP under an NFAT promoter) were infected with lentiviral vectors encoding different single chain and multi-chain SARs by spinfection in the presence of 8 µg/ml of Polybrene® (Sigma, Catalog no. H9268). The Jurkat-NFAT-GFP cells are engineered in such a way that the IL-2 promoter, which carries NFAT binding sites, is cloned upstream of the GFP gene. These cells have been used to study signaling via TCR and CAR. The different SARs were stably expressed in Jurkat NFAT-GFP cells by lentiviral mediated gene transfer, followed by selection with puromycin or blasticidin. No drug selection was used in case the construct lacked an antibiotic resistance gene. The SAR-expressing Jurkat-NFAT-GFP cells were cocultured with the target cells at E:T ratio of approximately 1:2 for approximately 4 hours to 18 hours. When the interaction between SIRs and their target antigen results in activation of the NFAT pathway, GFP expression is induced. […] GFP expression was monitored by FACS analysis. The Jurkat-NFAT-GFP (parental) cells were used as control. The structure of different constructs can be determined based on their names. […] The sequence of the other constructs in the table can be similarly determined from their names and by referring to the different Tables of this disclosure that provide the names and SEQ ID NO of the different modules. Alternatively, the composition and modular architecture of the different SAR constructs can be determined from their sequences by bioinformatics tools, including using nucleic acid and amino acids homology searches. A SAR is considered positive in the assay in case the SAR expressing Jurkat-NFAT-GFP cells show greater % GFP positive cells when cultured with the target cell line as compared to parental Jurkat-NFAT-GFP cells. […] In general, the number +/-, +, 2+, 3+, 4+, 5+ refer to approximately 5%, 10%, 20%, 30%, 40% and 50% GFP positive cells. The % of GFP induction in the above assay is dependent not only the relative strength of the SAR but also, among other factors, on the relative level of expression of the SAR in the JNG cells and the relative level of expression of the target antigen in the target cell line. To control for the difference in gene transduction efficiency of the different SAR constructs, the experiment was conducted with JNG cells transduced with SAR constructs co-expressing a drug resistance gene (e.g., puromycin or PAC) followed by drug selection to generate a stable population of SAR-expressing cells. It is to be noted that the drug resistance gene (e.g., PAC) in the SAR constructs is optional and in vivo studies were conducted with SAR constructs lacking the PAC gene.

Row | Molecule | GFP induction / activity in JNG assay
1 | B1 | only weak and inconsistent activity
2 | B2 | only weak and inconsistent activity
3 | B3 | best activity
4 | B4 | best activity
